Paper PMC4162137

What was measured:
[1] = target: TMPRSS2-ERG3 encoded protein (Type I ERG) fused to an N- or C-terminal fragment of Venus (human) (UniProt P11308)
[2] = target: TMPRSS2-ERG3 encoded protein (Type I ERG) fused to an N- or C-terminal fragment of Venus (human) (UniProt P11308); test: split reporter (BiFC, NanoBiT); BiFC with split Venus in HEK293 cells, 24 hours after transfection, percent of fluorescent cells counted by flow cytometry
[3] = target: TMPRSS2-ERG8 encoded protein (Type II ERG) fused to an N- or C-terminal fragment of Venus (human); test: as above
Sequence of TMPRSS2-ERG8 encoded protein (Type II ERG) fused to an N- or C-terminal fragment of Venus (human) (P11308 whole entry, the tested form may be a part): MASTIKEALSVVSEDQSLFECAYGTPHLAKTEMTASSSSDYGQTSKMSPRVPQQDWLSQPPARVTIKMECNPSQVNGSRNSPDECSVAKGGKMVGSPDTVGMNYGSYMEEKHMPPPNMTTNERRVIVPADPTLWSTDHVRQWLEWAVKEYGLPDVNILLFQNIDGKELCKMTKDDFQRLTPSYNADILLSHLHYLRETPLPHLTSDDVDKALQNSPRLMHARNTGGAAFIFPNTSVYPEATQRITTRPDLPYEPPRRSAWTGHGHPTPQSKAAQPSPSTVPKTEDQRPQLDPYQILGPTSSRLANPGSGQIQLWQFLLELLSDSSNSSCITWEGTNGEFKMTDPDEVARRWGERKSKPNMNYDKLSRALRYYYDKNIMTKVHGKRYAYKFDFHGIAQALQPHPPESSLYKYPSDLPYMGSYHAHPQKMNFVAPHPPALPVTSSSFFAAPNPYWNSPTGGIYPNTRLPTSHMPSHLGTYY

| mef2c enhancer luciferase reporter in HEK293 cells: 40 ng TM-ERG3 with 0-40 ng TM-ERG8 plasmid; reduction in luciferase activity against TM-ERG3 alone (at 20 ng or 40 ng TM-ERG8) (% reduction in luciferase activity) [1] | percent of cells positive for fluorescence (% cells positive for fluorescence) [2] | percent of cells positive for fluorescence (% positive cells) [3] | percent of cells positive for fluorescence (% cells positive for fluorescence) [3] | Substance |
| --- | --- | --- | --- | --- |
| 50 | 12.7 | 5.4 |  | TMPRSS2-ERG8 encoded protein (Type II ERG) fused to an N- or C-terminal fragment of Venus (natural protein) |
|  |  |  | 10.1 | TMPRSS2-ERG3 encoded protein (Type I ERG) fused to an N- or C-terminal fragment of Venus (from UniProt P11308-4 33-479) (natural protein) |
